According to patent publication US20250215103A1 (Hoffmann-La Roche, published 2025):

Assays:
Experiment in all cases: cell-based or functional assay
[1] = biological target: T1, human PD1 on cells (Jurkat cells expressing human PD1; activated human T cells) (human, UniProt Q15116 25-288)
[2] = biological target: T1, human PD1 on cells (Jurkat cells …); remark: listed apart in the source
[3] = biological target: T1, human PD1 on cells (Jurkat cells …); remark: listed apart in the source

T1 sequence (Q15116 25-288 limits assumed): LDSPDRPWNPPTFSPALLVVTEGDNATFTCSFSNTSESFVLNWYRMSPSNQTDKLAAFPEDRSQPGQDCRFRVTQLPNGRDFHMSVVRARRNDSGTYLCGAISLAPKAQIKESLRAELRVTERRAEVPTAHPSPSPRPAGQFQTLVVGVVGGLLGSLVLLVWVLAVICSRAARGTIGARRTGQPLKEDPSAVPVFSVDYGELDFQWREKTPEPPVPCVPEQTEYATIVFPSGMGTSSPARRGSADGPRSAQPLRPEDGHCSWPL

| Binder | EC50 (pM) of Granzyme B production, mMLR [1] [pM] | Fold activity vs. control (EC50 of Granzyme B, mMLR), control PD1-0103-312 [2] [fold vs PD1-0103-312] | Fold activity vs. control (EC50 of Granzyme B, mMLR), control 8014 [3] [fold vs 8014] |
| --- | --- | --- | --- |
| bispecific CrossMab 8012 (PD1-0103-0312/51A165) (bispecific antibody, human IgG1, kappa, L234A L235A) heavy 1: EVQLQQSGPELVKPGASVKMSCKASGYTFTSYVMHWVKQKPGQGLEWIGYVNPYNDDTKYNEKFRGKATLTSDKSSSTAYMELSSLTSEDSAVYYCARSYYYYSMDNWGQGTSVTVSSASTKGPSVFPLAPSSKSTSGGTAALGCLVEDYFPEPVTVSWNSGALTSGVHTFPAVLQSSGLYSLSSVVTVPSSSLGTQTYICNVNHKPSNTKVDEKVEPKSCDKTHTCPPCPAPEAAGGPSVFLFPPKPKDTLMISRTPEVTCVVVDVSHEDPEVKFNWYVDGVEVHNAKTKPREEQYNSTYRVVSVLTVLHQDWLNGKEYKCKVSNKALGAPIEKTISKAKGQPREPQVCTLPPSRDELTKNQVSLSCAVKGFYPSDIAVEWESNGQPENNYKTTPPVLDSDGSFFLVSKLTVDKSRWQQGNVFSCSVMHEALHNHYTQKSLSLSP light 1: QIVLTQSPAIMSASPGEKVTVTCSASSSIRYMHWYQQKPGTSPKRWIYDTSELASGVPARFSGSGSGTSYSLTINSMEAEDAATYYCHQRSSYPFTFGGGTKLEIKRTVAAPSVFIFPPSDRKLKSGTASVVCLLNNFYPREAKVQWKVDNALQSGNSQESVTEQDSKDSTYSLSSTLTLSKADYEKHKVYACEVTHQGLSSPVTKSFNRGEC heavy 2: not shown light 2: EVQLLESGGGLVQPGGSLRLSCAASGFSFSSYTMSWVRQAPGKGLEWVATISGGGRDIYYPDSVKGRFTISRDNSKNTLYLQMNSLRAEDTAVYYCVLLTGRVYFALDSWGQGTLVTVSSASVAAPSVFIFPPSDEQLKSGTASVVCLLNNFYPREAKVQWKVDNALQSGNSQESVTEQDSKDSTYSLSSTLTLSKADYEKHKVYACEVTHQGLSSPVTKSFNRGEC | 34 | 3.82 | 1560 |
| control CrossMab 8014 (PD1-0103-0312/Nada) (bispecific antibody, human IgG1, kappa, L234A L235A) heavy 1: EVQLVESGGGLVQPGGSLRLSCAASGFSIAGTAIHWVRQAPGKGLEWVASISPGGGSTAYADSVKGRFTISADTSKNTAYLQMNSLRAEDTAVYYCSRSGGSGASAMDYWGQGTLVTVSSASTKGPSVFPLAPSSKSTSGGTAALGCLVEDYFPEPVTVSWNSGALTSGVHTFPAVLQSSGLYSLSSVVTVPSSSLGTQTYICNVNHKPSNTKVDEKVEPKSCDKTHTCPPCPAPEAAGGPSVFLFPPKPKDTLMISRTPEVTCVVVDVSHEDPEVKFNWYVDGVEVHNAKTKPREEQYNSTYRVVSVLTVLHQDWLNGKEYKCKVSNKALGAPIEKTISKAKGQPREPQVCTLPPSRDELTKNQVSLSCAVKGFYPSDIAVEWESNGQPENNYKTTPPVLDSDGSFFLVSKLTVDKSRWQQGNVFSCSVMHEALHNHYTQKSLSLSP light 1: DIQMTQSPSSLSASVGDRVTITCRASQDVGSGVAWYQQKPGKAPKLLIGSASGLYSGVPSRFSGSRSGTDFTLTISSLQPEDFATYYCQQSASGGSTFGQGTKVEIKRTVAAPSVFIFPPSDRKLKSGTASVVCLLNNFYPREAKVQWKVDNALQSGNSQESVTEQDSKDSTYSLSSTLTLSKADYEKHKVYACEVTHQGLSSPVTKSFNRGEC heavy 2: not shown light 2: EVQLLESGGGLVQPGGSLRLSCAASGFSFSSYTMSWVRQAPGKGLEWVATISGGGRDIYYPDSVKGRFTISRDNSKNTLYLQMNSLRAEDTAVYYCVLLTGRVYFALDSWGQGTLVTVSSASVAAPSVFIFPPSDEQLKSGTASVVCLLNNFYPREAKVQWKVDNALQSGNSQESVTEQDSKDSTYSLSSTLTLSKADYEKHKVYACEVTHQGLSSPVTKSFNRGEC | 13100 | – | – |
| control 2+1 CrossMab 8159 (PD1-0103-0312/Nada TCB-format) (bispecific antibody, human IgG1, kappa, L234A L235A) light 1: EVQLLESGGGLVQPGGSLRLSCAASGFSFSSYTMSWVRQAPGKGLEWVATISGGGRDIYYPDSVKGRFTISRDNSKNTLYLQMNSLRAEDTAVYYCVLLTGRVYFALDSWGQGTLVTVSSASVAAPSVFIFPPSDEQLKSGTASVVCLLNNFYPREAKVQWKVDNALQSGNSQESVTEQDSKDSTYSLSSTLTLSKADYEKHKVYACEVTHQGLSSPVTKSFNRGEC light 2: DIQMTQSPSSLSASVGDRVTITCRASQDVGSGVAWYQQKPGKAPKLLIGSASGLYSGVPSRFSGSRSGTDFTLTISSLQPEDFATYYCQQSASGGSTFGQGTKVEIKRTVAAPSVFIFPPSDRKLKSGTASVVCLLNNFYPREAKVQWKVDNALQSGNSQESVTEQDSKDSTYSLSSTLTLSKADYEKHKVYACEVTHQGLSSPVTKSFNRGEC heavy 1: DIVMTQSPDSLAVSLGERATINCKASESVDTSDNSFIHWYQQKPGQSPKLLIYRSSTLESGVPDRFSGSGSGTDFTLTISSLQAEDVAVYYCQQNYDVPWTFGQGTKVEIKSSASTKGPSVFPLAPSSKSTSGGTAALGCLVKDYFPEPVTVSWNSGALTSGVHTFPAVLQSSGLYSLSSVVTVPSSSLGTQTYICNVNHKPSNTKVDKKVEPKSCDGGGGSGGGGSEVQLVESGGGLVQPGGSLRLSCAASGFSIAGTAIHWVRQAPGKGLEWVASISPGGGSTAYADSVKGRFTISADTSKNTAYLQMNSLRAEDTAVYYCSRSGGSGASAMDYWGQGTLVTVSSASTKGPSVFPLAPSSKSTSGGTAALGCLVEDYFPEPVTVSWNSGALTSGVHTFPAVLQSSGLYSLSSVVTVPSSSLGTQTYICNVNHKPSNTKVDEKVEPKSCDKTHTCPPCPAPEAAGGPSVFLFPPKPKDTLMISRTPEVTCVVVDVSHEDPEVKFNWYVDGVEVHNAKTKPREEQYNSTYRVVSVLTVLHQDWLNGKEYKCKVSNKALGAPIEKTISKAKGQPREPQVCTLPPSRDELTKNQVSLSCAVKGFYPSDIAVEWESNGQPENNYKTTPPVLDSDGSFFLVSKLTVDKSRWQQGNVFSCSVMHEALHNHYTQKSLSLSP heavy 2: not shown | 117 | – | – |
| control 2+1 CrossMab 8158 (PD1-0103-0312/Nada BBB-format) (bispecific antibody, human IgG1, kappa, L234A L235A) light 1: EVQLLESGGGLVQPGGSLRLSCAASGFSFSSYTMSWVRQAPGKGLEWVATISGGGRDIYYPDSVKGRFTISRDNSKNTLYLQMNSLRAEDTAVYYCVLLTGRVYFALDSWGQGTLVTVSSASVAAPSVFIFPPSDEQLKSGTASVVCLLNNFYPREAKVQWKVDNALQSGNSQESVTEQDSKDSTYSLSSTLTLSKADYEKHKVYACEVTHQGLSSPVTKSFNRGEC light 2: DIQMTQSPSSLSASVGDRVTITCRASQDVGSGVAWYQQKPGKAPKLLIGSASGLYSGVPSRFSGSRSGTDFTLTISSLQPEDFATYYCQQSASGGSTFGQGTKVEIKRTVAAPSVFIFPPSDRKLKSGTASVVCLLNNFYPREAKVQWKVDNALQSGNSQESVTEQDSKDSTYSLSSTLTLSKADYEKHKVYACEVTHQGLSSPVTKSFNRGEC heavy 1: DIVMTQSPDSLAVSLGERATINCKASESVDTSDNSFIHWYQQKPGQSPKLLIYRSSTLESGVPDRFSGSGSGTDFTLTISSLQAEDVAVYYCQQNYDVPWTFGQGTKVEIKSSASTKGPSVFPLAPSSKSTSGGTAALGCLVKDYFPEPVTVSWNSGALTSGVHTFPAVLQSSGLYSLSSVVTVPSSSLGTQTYICNVNHKPSNTKVDKKVEPKSCDKTHTCPPCPAPEAAGGPSVFLFPPKPKDTLMISRTPEVTCVVVDVSHEDPEVKFNWYVDGVEVHNAKTKPREEQYNSTYRVVSVLTVLHQDWLNGKEYKCKVSNKALGAPIEKTISKAKGQPREPQVCTLPPSRDELTKNQVSLSCAVKGFYPSDIAVEWESNGQPENNYKTTPPVLDSDGSFFLVSKLTVDKSRWQQGNVFSCSVMHEALHNHYTQKSLSLSPGKGGGGSGGGGSEVQLVESGGGLVQPGGSLRLSCAASGFSIAGTAIHWVRQAPGKGLEWVASISPGGGSTAYADSVKGRFTISADTSKNTAYLQMNSLRAEDTAVYYCSRSGGSGASAMDYWGQGTLVTVSSASTKGPSVFPLAPSSKSTSGGTAALGCLVEDYFPEPVTVSWNSGALTSGVHTFPAVLQSSGLYSLSSVVTVPSSSLGTQTYICNVNHKPSNTKVDEKVEPKSCD heavy 2: not shown | 111 | – | – |
| bispecific CrossMab 8013 (PD1-0103-0312/1026) (bispecific antibody, human IgG1, kappa, L234A L235A) heavy 1: QSMQESGPGLVKPSQTLSLTCTVSGFSLSSYAMSWIRQHPGKGLEWIGYIWSGGSTDYASWAKSRVTISKTSTTVSLKLSSVTAADTAVYYCARRYGTSYPDYGDASGFDPWGQGTLVTVSSASTKGPSVFPLAPSSKSTSGGTAALGCLVEDYFPEPVTVSWNSGALTSGVHTFPAVLQSSGLYSLSSVVTVPSSSLGTQTYICNVNHKPSNTKVDEKVEPKSCDKTHTCPPCPAPEAAGGPSVFLFPPKPKDTLMISRTPEVTCVVVDVSHEDPEVKFNWYVDGVEVHNAKTKPREEQYNSTYRVVSVLTVLHQDWLNGKEYKCKVSNKALGAPIEKTISKAKGQPREPQVCTLPPSRDELTKNQVSLSCAVKGFYPSDIAVEWESNGQPENNYKTTPPVLDSDGSFFLVSKLTVDKSRWQQGNVFSCSVMHEALHNHYTQKSLSLSP light 1: AIQLTQSPSSLSASVGDRVTITCRASQSISSYLAWYQQKPGKAPKLLIYRASTLASGVPSRFSGSGSGTDFTLTISSLQPEDFATYYCQQNYASSNVDNTFGGGTKVEIKRTVAAPSVFIFPPSDRKLKSGTASVVCLLNNFYPREAKVQWKVDNALQSGNSQESVTEQDSKDSTYSLSSTLTLSKADYEKHKVYACEVTHQGLSSPVTKSFNRGEC heavy 2: not shown light 2: EVQLLESGGGLVQPGGSLRLSCAASGFSFSSYTMSWVRQAPGKGLEWVATISGGGRDIYYPDSVKGRFTISRDNSKNTLYLQMNSLRAEDTAVYYCVLLTGRVYFALDSWGQGTLVTVSSASVAAPSVFIFPPSDEQLKSGTASVVCLLNNFYPREAKVQWKVDNALQSGNSQESVTEQDSKDSTYSLSSTLTLSKADYEKHKVYACEVTHQGLSSPVTKSFNRGEC | 388 | 0.47 | 191 |
| PD1-0103-0312 (antibody, V domains shown) VH: EVQLLESGGGLVQPGGSLRLSCAASGFSFSSYTMSWVRQAPGKGLEWVATISGGGRDIYYPDSVKGRFTISRDNSKNTLYLQMNSLRAEDTAVYYCVLLTGRVYFALDSWGQGTLVTVSS VL: DIVMTQSPDSLAVSLGERATINCKASESVDTSDNSFIHWYQQKPGQSPKLLIYRSSTLESGVPDRFSGSGSGTDFTLTISSLQAEDVAVYYCQQNYDVPWTFGQGTKVEIK | 110 | – | – |
